Consider one substance from article PMC2885556.

The target in the assay is wild-type E. coli ClpX (E. coli) (UniProt P0A6H1).
Sequence of UniProt P0A6H1 (P0A6H1 whole entry): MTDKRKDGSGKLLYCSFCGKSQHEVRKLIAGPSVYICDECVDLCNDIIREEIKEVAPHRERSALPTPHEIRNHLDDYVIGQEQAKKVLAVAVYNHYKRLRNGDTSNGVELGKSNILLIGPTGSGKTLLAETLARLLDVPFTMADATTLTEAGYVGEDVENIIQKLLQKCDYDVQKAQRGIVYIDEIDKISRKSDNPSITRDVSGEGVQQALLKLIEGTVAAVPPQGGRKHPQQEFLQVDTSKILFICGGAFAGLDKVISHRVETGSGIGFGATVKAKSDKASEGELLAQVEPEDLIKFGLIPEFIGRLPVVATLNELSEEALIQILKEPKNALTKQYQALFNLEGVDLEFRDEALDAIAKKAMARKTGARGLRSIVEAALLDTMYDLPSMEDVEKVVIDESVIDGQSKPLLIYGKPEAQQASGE

With “wild-type E. coli ClpP with a C-terminal His6 tag (from UniProt P0A6G7 15-207) (enzyme)”, the rate of decapeptide cleavage by ClpP with ClpX•ATPγS, against ClpP alone worked out at 9 fold.
